{"source": "paper PMC11528890", "molecular_target": "nitrogenase MoFe-protein (Azotobacter vinelandii) (UniProt P07328)", "sequence (P07328 whole entry, chain 1 of 2)": "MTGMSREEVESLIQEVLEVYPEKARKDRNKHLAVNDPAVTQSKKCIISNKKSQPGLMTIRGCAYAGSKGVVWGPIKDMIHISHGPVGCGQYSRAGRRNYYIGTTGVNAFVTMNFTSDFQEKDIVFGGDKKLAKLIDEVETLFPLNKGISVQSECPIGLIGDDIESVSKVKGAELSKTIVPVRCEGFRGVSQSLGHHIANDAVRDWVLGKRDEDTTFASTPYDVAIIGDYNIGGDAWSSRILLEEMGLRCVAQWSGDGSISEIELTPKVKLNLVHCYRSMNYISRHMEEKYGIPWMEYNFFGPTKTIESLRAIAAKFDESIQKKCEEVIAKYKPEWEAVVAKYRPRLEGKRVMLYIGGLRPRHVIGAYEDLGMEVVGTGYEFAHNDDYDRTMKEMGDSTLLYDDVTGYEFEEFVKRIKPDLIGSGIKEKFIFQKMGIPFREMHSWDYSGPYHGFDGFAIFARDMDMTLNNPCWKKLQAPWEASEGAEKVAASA", "sequence (P07329 whole entry, chain 2 of 2, further chain)": "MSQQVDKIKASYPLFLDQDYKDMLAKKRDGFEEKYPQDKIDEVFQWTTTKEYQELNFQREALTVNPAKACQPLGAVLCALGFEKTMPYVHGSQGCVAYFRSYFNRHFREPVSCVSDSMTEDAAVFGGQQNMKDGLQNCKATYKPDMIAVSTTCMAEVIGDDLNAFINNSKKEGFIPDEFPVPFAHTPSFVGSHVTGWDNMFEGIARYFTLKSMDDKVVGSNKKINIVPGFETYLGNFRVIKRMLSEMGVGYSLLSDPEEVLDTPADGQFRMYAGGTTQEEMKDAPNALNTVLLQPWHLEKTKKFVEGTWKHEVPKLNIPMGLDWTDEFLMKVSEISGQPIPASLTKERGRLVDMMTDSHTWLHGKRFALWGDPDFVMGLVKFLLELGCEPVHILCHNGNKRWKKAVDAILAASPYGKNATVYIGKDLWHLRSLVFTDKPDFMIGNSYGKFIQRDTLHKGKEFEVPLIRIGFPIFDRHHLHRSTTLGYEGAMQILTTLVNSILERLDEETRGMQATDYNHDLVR", "experiment": "cryo-EM structure; single particle cryoEM of the ADP-AlF4- stabilized complex of the two nitrogenase proteins; grids prepared anaerobically in the vinyl tent; carbon-layered grids", "note": "Where “and” joins values, the source holds several entries; their conditions need not be identical. Identical values can stand only once.", "data": [{"substance": "nitrogenase Fe-protein (enzyme)", "values": [{"measurement": "stoichiometry N (Fe-protein:MoFe-protein)", "result": "2 and 1"}]}]}
